Here are results for one molecule from patent US20230220081A1 (Xencor, published 2023).

For this test, the target named is T1, PD-1 on SEB-stimulated human T cells (human, UniProt Q15116 25-288).
T1 construct: whole, on cells; also called SEB-stimulated T cells
The test is described as follows: flow cytometry on SEB-stimulated human PBMCs, APC anti-human kappa MFI on CD3-FITC+ cells. As to the method: Binding of anti-PD-1 clone 1C11 to T cells was measured in an SEB-stimulated PBMC assay. Staphylococcal Enterotoxin B (SEB) is a superantigen that causes T cell activation and proliferation in a manner similar to that achieved by activation via the T cell receptor (TCR), including expression of checkpoint receptors such as PD-1. Human PBMCs were stimulated with […] for 3 days. Following stimulation, PBMCs were incubated with the indicated test articles at indicated concentrations at 4° C. for 30 min. PBMCs were stained with anti-CD3-FITC (UCHT1) and APC labeled antibody for human immunoglobulin κ light chain. The binding of the test articles to T cells as indicated by APC MFI on FITC+ cells is depicted in FIG. 17.
In general terms: In flow cytometry, cells or beads pass a laser one at a time.

T1 sequence (Q15116 25-288): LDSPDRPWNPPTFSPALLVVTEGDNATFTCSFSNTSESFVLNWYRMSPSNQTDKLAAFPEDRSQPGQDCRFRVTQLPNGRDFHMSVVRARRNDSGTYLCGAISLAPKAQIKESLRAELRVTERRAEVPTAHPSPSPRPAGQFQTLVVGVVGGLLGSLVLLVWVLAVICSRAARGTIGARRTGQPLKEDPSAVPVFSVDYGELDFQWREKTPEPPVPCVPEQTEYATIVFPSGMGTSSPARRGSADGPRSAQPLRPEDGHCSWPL

B1: XENP21575, chimeric anti-PD-1 antibody based on the variable regions of hybridoma clone 1C11 and human IgG1 with E233P/L234V/L235A/G236del/S267K substitutions … (antibody, V domains shown)
VH: QIQLVQSGPELKKPGETVKISCRASGYTFTHYGMNWVKQAPGKGLKWMGWINTYTGEPTYADDFKGRFAFSLETSASTAYLQINNLKNEDTATYFCARDYYGSSPYWGQGTTLTVSS
VL: DVLMTQTPLSLPVSLGDQASISCRSSQSIVHSNGNTYLEWYLQKPGQSPKLLIYKVSNRFSGVPDRFSGSGSGTDFTLKISRVEAEDLGVYYCFQGSHVPNTFGGGTKLEIKR
notes: Mouse hybridoma variable regions on human IgG1 with FcγR ablation substitutions (EU numbering); also called anti-PD-1 clone 1C11
With B1, the binding result is recorded as “binds”.
